Values joined by “and” are separate entries in the source; they are usually repeats but may differ in a detail not shown here. Identical values can stand only once.
Tests used:
[1] = target: T1, SARS-CoV-2 nucleocapsid protein (Np) (SARS-CoV-2, UniProt P0DTC9 1-419); experiment: EMSA; settings: protein: recombinant; tags: His (pET30a(+), Ni-NTA purified); chain copies: 2; label: 5'-FAM on the 18 mer
[2] = target: SARS-CoV-2 nucleocapsid protein (Np);DDX3X (SARS-CoV-2;Homo sapiens, UniProt P0DTC9;O00571 1-419;1-662, |); experiment: EMSA; Np titrated with fixed DDX3X; settings: protein: recombinant;recombinant; tags: His (pET30a(+), Ni-NTA purified);pET30a(+) vector; label: 5'-FAM on the 18 mer
[3] = target: SARS-CoV-2 nucleocapsid protein (Np);DDX1 (SARS-CoV-2;Homo sapiens, UniProt P0DTC9;Q92499 1-419;1-740, |); experiment: EMSA; Np titrated with fixed DDX1; settings: protein: recombinant;recombinant; tags: His (pET30a(+), Ni-NTA purified);pET30a(+) vector; label: 5'-FAM on the 18 mer
[4] = target: T1, SARS-CoV-2 nucleocapsid protein (Np); experiment: EMSA; apparent, cooperative fit; settings: protein: recombinant; tags: His (pET30a(+), Ni-NTA purified); chain copies: 2; label: 5'-FAM on the 18 mer
[5] = target: T1, SARS-CoV-2 nucleocapsid protein (Np); experiment: EMSA; time course; settings: protein: recombinant; tags: His (pET30a(+), Ni-NTA purified); chain copies: 2; label: 5'-FAM; single strand

Binder	Kd [1]	Kd [2]	Kd [3]	Kd [4]	binding result [5]
18/38 mer FAM partially dsRNA (dsRNA) RNA 1: AUGAAGGUUUGAGUUGAGUGGAGAUAGUGGAGGGUAGU RNA 2: CUCAACUCAAACCUUCAU	193 nM and 300 nM	80 nM	40 nM	170 nM	–
CUCAACUCAAACCUUCAU (ssRNA) [ssRNA 18 mer FAM]	–	–	–	–	binds
